One assay concerns the target monkey CD19-his protein (monkey). As to the kind of experiment: ELISA, monkey CD19 coated. Here is the method: After incubation for 2 h at 37° C., the plate was washed 3 times with PBS. […] After incubation for 1 h at 37° C., the plate was washed 5 times with PBS. A TMB substrate was added at 50 μL/well. After incubation at room temperature for 10 min, a stop solution (1.0 N HCl) was added at 50 μL/well. The OD450 nm values were read on an ELISA microplate reader (Multimode Plate Reader, EnSight, purchased from Perkin Elmer). […] The negative control antibody mIgG1 was an antibody against hen egg lysozyme, anti-hel-mIgG1 (purchased from Biointron, Cat. No. B118301), and the data in the table were OD450 nm values.
IgG control was mIgG1, S003-NB151-89 was a clone that is selected from a library constructed by peripheral blood collected from Alpaca immunized by human CD19-His and can bind to a monkey CD19-His protein, and was used as a positive control, and the data in the table were OD450 nm values.
(In general: In an ELISA, binding on a coated surface is turned into a signal by an enzyme label.)

The target of the next assay is T1, murine CD19 protein (murine, UniProt P25918 19-287, limits assumed).
T1 construct: also called mouse CD19-his protein
T1 sequence (looked up): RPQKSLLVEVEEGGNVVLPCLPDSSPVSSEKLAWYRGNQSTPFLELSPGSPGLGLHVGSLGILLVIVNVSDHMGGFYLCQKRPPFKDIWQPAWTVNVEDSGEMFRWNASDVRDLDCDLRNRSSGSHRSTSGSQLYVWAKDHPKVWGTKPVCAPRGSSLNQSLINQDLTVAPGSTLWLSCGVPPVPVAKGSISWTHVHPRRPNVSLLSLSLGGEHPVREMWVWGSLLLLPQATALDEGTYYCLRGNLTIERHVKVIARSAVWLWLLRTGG
The experiment in a line: ELISA, murine CD19 coated.

For assay [1], the target named is T2, monkey CD19, full length, on HEK293T cells (monkey, UniProt P15391 20-556 (human entry)).
T2 construct: The entry holds the signal peptide; also called HEK293T-monkey CD19
T2 chain: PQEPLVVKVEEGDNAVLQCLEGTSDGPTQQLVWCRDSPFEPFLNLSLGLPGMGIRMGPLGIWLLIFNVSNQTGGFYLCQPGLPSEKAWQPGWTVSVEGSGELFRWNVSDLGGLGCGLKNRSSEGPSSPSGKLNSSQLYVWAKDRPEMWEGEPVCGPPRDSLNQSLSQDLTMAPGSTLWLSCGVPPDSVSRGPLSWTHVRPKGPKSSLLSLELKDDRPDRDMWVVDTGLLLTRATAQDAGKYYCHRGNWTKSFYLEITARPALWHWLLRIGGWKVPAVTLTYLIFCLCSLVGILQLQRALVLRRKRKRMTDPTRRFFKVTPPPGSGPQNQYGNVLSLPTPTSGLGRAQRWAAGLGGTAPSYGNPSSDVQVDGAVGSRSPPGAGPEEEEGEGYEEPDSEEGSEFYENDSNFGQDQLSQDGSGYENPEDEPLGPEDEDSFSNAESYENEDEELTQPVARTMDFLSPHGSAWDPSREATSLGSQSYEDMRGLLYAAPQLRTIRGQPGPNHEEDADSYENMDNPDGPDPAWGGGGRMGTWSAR
As to the kind of experiment: FACS on HEK293T-monkey CD19 cells. Here is the method:
(§1) For suspension cells Raji, the medium supernatant was discarded by direct centrifugation, and the cell pellet was washed twice with PBS. After cell counting of the cells obtained in the last step, the cell pellet was resuspended to 2×10⁶ cells/mL with a blocking solution [PBS+2% (w/w) BSA] and added into a 96-well FACS reaction plate at 50 μL/well. […] After the plate was centrifuged and washed 5 times with a PBS buffer, the results were assayed and analyzed by FACS (FACS Canto™, purchased from BD Biosciences). Data analysis was performed by software (CellQuest) to obtain the mean fluorescence intensity (MFI) of the cells. Then, analysis was performed by software (GraphPad Prism8), data were fitted, and EC₅₀ values were calculated.
(§2) HEK293T-monkey CD19 cells were subjected to the FACS assay and data analysis according to the method described in Example 4.2.

Assay [2] addresses T2, monkey CD19, full length, on HEK293T …. The experiment in a line: FACS titration on HEK293T-monkey CD19 cells. Here is the method: as §1, §2
For assay [3], the target named is T3, cynomolgus monkey CD19 on peripheral blood B cells (cynomolgus monkey (Macaca fascicularis), UniProt A0A2K5W8L9 20-557).
T3 construct: whole, on cells; also called cynomolgus monkey B cells
T3 sequence: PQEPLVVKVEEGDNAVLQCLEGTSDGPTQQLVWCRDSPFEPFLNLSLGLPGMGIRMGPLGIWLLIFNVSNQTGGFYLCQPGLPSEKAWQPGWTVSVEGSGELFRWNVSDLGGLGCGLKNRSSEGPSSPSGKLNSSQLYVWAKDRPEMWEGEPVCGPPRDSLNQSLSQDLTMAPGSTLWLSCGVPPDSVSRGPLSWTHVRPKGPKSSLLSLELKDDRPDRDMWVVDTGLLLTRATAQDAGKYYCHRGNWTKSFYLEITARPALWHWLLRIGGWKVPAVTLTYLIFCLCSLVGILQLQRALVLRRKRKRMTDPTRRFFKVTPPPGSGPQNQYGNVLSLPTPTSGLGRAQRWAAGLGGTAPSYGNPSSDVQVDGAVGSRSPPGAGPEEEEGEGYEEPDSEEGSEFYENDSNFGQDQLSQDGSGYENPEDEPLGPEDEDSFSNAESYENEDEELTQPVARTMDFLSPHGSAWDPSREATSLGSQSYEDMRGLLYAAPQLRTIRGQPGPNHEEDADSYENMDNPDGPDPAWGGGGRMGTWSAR
As to the kind of experiment: FACS on cynomolgus monkey PBMC, gated on CD20-positive B cells. Here is the method:
Monkey peripheral blood mononuclear cells were extracted from fresh cynomolgus monkey peripheral blood (purchased from Shanghai Medicilon Inc.) according to Ficoll-Paque Plus (purchased from GE Healthcare, Cat. No. 171440-02). […] The cells were incubated at room temperature for 1 h. […] The cells were incubated at room temperature for 30 min in the dark, washed 5 times, gently resuspended in PBS, and assayed and analyzed by FACS (FACS Canto™, purchased from BD Biosciences), in which CD20 was used as a marker for B cells.

B1: FMC63-mIgG1 (antibody, V domains shown)
VH: EVKLQESGPGLVAPSQSLSVTCTVSGVSLPDYGVSWIRQPPRKGLEWLGVIWGSETTYYNSALKSRLTIIKDNSKSQVFLKMNSLQTDDTAIYYCAKHYYYGGSYAMDYWGQGTSVTVSS
VL: DIQMTQTTSSLSASLGDRVTISCRASQDISKYLNWYQQKPDGTVKLLIYHTSRLHSGVPSRFSGSGSGTDYSLTISNLEQEDIATYFCQQGNTLPYTFGGGTKLEITR
notes: Parent murine antibody; also called murine antibody FMC63
In the case of B1, in the assay with monkey CD19-his protein, the “OD450 at 0.0001 nM” value came to 0.05 OD450, the “OD450 at 0.001 nM” value was found to be 0.05 OD450, the “OD450 at 0.01 nM” value worked out at 0.05 OD450 and the “OD450 at 0.10 nM” value was found to be 0.05 OD450. In the assay with monkey CD19-his protein, the “OD450 at 1.00 nM” value came out at 0.05 OD450, the “OD450 at 10.00 nM” value is 0.05 OD450 and the “OD450 at 100.00 nM” value came to 0.09 OD450. In the assay with murine CD19 protein, the “OD450 at 0.0001 nM” value was determined as 0.06 OD450, the “OD450 at 0.001 nM” value came to 0.06 OD450, the “OD450 at 0.01 nM” value is 0.05 OD450 and the “OD450 at 0.10 nM” value stood at 0.05 OD450. For the same molecule, in the assay with murine CD19 protein, the “OD450 at 1.00 nM” value is 0.06 OD450, the “OD450 at 10.00 nM” value amounted to 0.07 OD450 and the “OD450 at 100.00 nM” value stood at 0.1 OD450.

B2: 9G8-mIgG1 (antibody, V domains shown)
VH: EVQLVQSGAEVKKPGESLKISCKGSGYSFTSYWIGWVRQMPGKGLEWMGIIYPGDSDTRYSPSFQGQVTISADKSISTAYLQWSSLKASDTAMYYCARGVSGIYNLHGFDIWGQGTLVTVSS
VL: DIQMTQSPSSLSASVGDRVTITCRASQSISSYLNWYQQKPGKAPKLLIYAASSLQSGVPSRFSGSGSGTDFTLTISSLQPEDFATYYCQQGRFGSPFTFGQGTKVEIKR
notes: Control anti-CD19 antibody with monkey cross-activity
For B2, in assay [1], the EC50 (in general, the midpoint of the concentration-response curve) was 2.08 nM and the “maximum mean fluorescence intensity” value amounted to 19500 MFI. In addition, in assay [2], the EC50 (read off the curve) – broadly, the concentration needed to bring the measured effect to its halfway point – is around 0.4 nM. Further, in assay [3], the “proportion of positive cells to B cells (%) at 1 nM” value is 3%, the “proportion of positive cells to B cells (%) at 10 nM” value is 14% and the “proportion of positive cells to B cells (%) at 100 nM” value came to 71%.

The values are drawn from patent publication US20230406922A1 (SIMCERE ZAIMING PHARMACEUTICAL, published 2023).
